Source: publication PMC12572175
Positions count from the first letter of the chain named. Names and notes keep the numbering of the source.

B1: sdAb n501 R95A (protein)
chain: EVQLVESGGGLVQPGGSLRLSCAASDFTFRNYEMSWVRQAPGKGLEWVSSISGSGGSTYYAHSLKGRFTISRDNSKNTLYLQMNSLAAEDTAIYYCARLRDGFNNGFDYWGQGTLVTVSS
B2: sdAb n501 T77A (protein)
chain: B1 chain with T69A, A87R
B3: sdAb n501 S79A (protein)
chain: B1 chain with S71A, A87R
B4: sdAb n501 K72A (protein)
chain: B1 chain with K65A, A87R
B5: sdAb n501 S18A (protein)
chain: B1 chain with S17A, A87R
B6: sdAb n501 G16A (protein)
chain: B1 chain with G15A, A87R
B7: sdAb n501 N92A (protein)
chain: B1 chain with N84A, A87R
B8: sdAb n501 Y67A (protein)
chain: B1 chain with Y60A, A87R
B9: sdAb n501 T65A (protein)
chain: B1 chain with T58A, A87R

Biological target: Protein A domain D
Assay: ELISA
Details: chain shown with the change;; parent: 7.5 nM

Row | Binder | EC50 [nM]
1 | B1 | 404
2 | B2 | 200
3 | B3 | 245
4 | B4 | 685
5 | B5 | 709
6 | B6 | 92
7 | B7 | 151
8 | B8 | 162

Biological target: Protein A domain D
Assay: BLI
Details: chain shown with the change;; parent: 35.3 nM

Row | Binder | Kd [nM]
9 | B1 | 431
10 | B3 | 372
11 | B4 | 1360
12 | B5 | 136
13 | B6 | 96.3
14 | B9 | 1030
